Here are results for five molecules from patent publication US20190324032A1 (University of California, published 2019).

In one experiment the target is T1, CRY1 PHR R109Q (mouse, UniProt P97784 1-491).
T1 construct: also called CRY1 PHR R109Q mutant; not shown: N-terminal His6 tag / vector residues
T1 sequence: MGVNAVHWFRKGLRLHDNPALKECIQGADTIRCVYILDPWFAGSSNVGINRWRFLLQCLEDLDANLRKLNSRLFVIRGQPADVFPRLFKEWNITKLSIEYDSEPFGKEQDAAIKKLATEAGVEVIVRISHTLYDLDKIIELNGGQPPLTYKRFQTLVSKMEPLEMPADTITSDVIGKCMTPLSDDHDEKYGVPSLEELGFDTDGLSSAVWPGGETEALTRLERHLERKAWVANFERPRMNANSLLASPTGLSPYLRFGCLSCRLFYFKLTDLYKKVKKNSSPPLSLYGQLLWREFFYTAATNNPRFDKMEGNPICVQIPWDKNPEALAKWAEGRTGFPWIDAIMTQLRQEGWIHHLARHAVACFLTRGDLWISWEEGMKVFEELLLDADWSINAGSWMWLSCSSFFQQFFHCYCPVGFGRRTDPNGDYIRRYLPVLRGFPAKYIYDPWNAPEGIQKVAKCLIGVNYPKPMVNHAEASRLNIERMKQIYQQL
Nature of the experiment: size exclusion chromatography. The method, then: (§1) For analysis of complex formation by size-exclusion chromatography (SEC), purified proteins were injected on a Superdex 200 10/300 GL or Superdex 75 10/300 GL analytical column at 10-50 μM (˜250 μL, 1:1 molar ratio) in 20 mM HEPES pH 7.5, 125 mM NaCl, 5% glycerol and 2 mM TCEP. Proteins were incubated for ˜30 min. or overnight and analyzed by SEC. All size-exclusion columns were calibrated with a low-molecular-weight gel filtration standards kit (GE Healthcare Life Sciences). The content of each peak was evaluated by SDS-PAGE and Coomassie staining.

For the next experiment, the target named is T2, CRY1 PHR P39A (mouse, UniProt P97784 1-491).
T2 construct: also called CRY1 PHR P39A mutant; not shown: N-terminal His6 tag / vector residues
T2 sequence: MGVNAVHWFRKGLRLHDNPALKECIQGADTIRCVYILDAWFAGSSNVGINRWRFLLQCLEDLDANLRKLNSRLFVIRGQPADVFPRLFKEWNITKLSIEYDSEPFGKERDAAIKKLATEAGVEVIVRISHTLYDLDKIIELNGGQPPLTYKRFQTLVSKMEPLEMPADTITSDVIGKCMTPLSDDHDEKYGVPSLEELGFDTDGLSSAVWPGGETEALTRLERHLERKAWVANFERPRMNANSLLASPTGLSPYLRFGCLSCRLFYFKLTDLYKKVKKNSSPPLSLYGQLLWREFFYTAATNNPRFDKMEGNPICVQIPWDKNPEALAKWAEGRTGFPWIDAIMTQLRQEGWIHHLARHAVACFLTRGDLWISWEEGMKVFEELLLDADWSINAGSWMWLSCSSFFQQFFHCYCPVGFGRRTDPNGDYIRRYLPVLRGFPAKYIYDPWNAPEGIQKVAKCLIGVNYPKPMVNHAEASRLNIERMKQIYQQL
Nature of the experiment: size exclusion chromatography. The method, then: as §1
A general note: In gel filtration, larger molecules generally elute earlier.

Experiment [1] deals with T3, His6-tagged mouse CRY1 PHR (photolyase homology region, amino acids 1-491) (mouse, UniProt P97784 1-491).
T3 construct: Expressed in Sf9 cells; also called wild-type CRY1 PHR; not shown: N-terminal His6 tag / vector residues
T3 sequence: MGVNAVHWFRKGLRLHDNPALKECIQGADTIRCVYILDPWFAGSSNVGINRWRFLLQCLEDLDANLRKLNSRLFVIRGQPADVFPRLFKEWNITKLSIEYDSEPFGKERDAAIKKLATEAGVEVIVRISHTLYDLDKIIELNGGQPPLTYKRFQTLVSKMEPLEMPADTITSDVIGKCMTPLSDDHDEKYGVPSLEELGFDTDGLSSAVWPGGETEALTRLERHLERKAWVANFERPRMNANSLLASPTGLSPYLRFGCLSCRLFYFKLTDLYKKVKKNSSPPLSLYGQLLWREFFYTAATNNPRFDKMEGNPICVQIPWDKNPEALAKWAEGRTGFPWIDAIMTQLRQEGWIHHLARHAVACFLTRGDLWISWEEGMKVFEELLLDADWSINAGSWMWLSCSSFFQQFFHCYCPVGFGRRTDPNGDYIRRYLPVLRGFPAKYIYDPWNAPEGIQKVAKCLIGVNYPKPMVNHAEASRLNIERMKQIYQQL
Nature of the experiment: SEC of CRY1 PHR with preformed CLOCK:BMAL1 PAS-B dimer. The method, then: as §1

The target of experiment [2] is T3, His6-tagged mouse CRY1 PHR (photolyase …). The experiment in a line: GST pull-down. The method, then:
Soluble proteins were purified using GS4B resin (GE Healthcare). GST-tagged proteins were eluted with 10 mM glutathione and peak elution was desalted into 20 mM HEPES pH 7.5, 125 mM NaCl, 5% glycerol and 2 mM TCEP. […] After rotation at 4° C. overnight, reactions were washed 3 times with the above buffer and eluted with 6× SDS. Samples were boiled for ˜5 min. and loaded on an SDS-PAGE gel for visualization by Coomassie stain.

The target is the same in experiment [3]. Nature of the experiment: size exclusion chromatography. The method, then: as §1
The target in experiment [4] is mouse BMAL1 PAS-B (residues 329-441) (mouse, UniProt Q9WTL8 329-441). Nature of the experiment: size exclusion chromatography on Superdex 75. The method, then: as §1
The target of experiment [5] is T4, CLOCK PAS-B domain (residues 261-395) site-specifically labeled with FAM at its N-terminus (human, UniProt O15516 261-395, FAM (fluorescein) at the N-terminus, attached with Sortase A from FAM-LPETGG onto the N-terminal glycine).
T4 construct: Sortase ligation leaves residues of the FAM-LPETGG peptide in front of the N-terminal glycine; also called labeled CLOCK PAS-B; CLOCK PAS-B probe
T4 sequence: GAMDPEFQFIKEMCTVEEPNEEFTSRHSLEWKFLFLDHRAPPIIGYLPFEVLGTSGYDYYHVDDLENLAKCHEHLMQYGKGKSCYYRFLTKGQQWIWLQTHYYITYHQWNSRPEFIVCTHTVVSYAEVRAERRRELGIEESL
Nature of the experiment: fluorescence polarization. On the technique in general: Polarisation of emitted light reports the rotation of a fluorescent probe.

mouse BMAL1 PAS-B (residues 329-441), sequence (Q9WTL8 329-441): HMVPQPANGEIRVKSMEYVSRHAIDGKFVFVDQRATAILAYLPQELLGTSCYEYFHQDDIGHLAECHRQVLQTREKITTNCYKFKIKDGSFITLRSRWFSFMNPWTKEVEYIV

B1: mouse CLOCK PAS-B (residues 261-395) (other)
chain: QFIKEMCTVEEPNEEFTSRHSLEWKFLFLDHRAPPIIGYLPFEVLGTSGYDYYHVDDLENLAKCHEHLMQYGKGKSCYYRFLTKGQQWIWLQTHYYITYHQWNSRPEFIVCTHTVVSYAEVRAERRRELGIEESL
notes: also called CLOCK PAS-B domain; CLOCK PAS-B WT
For B1, the binding result is “no binding (tested: 10-50 µM, 1:1 molar ratio)” in the experiment with CRY1 PHR R109Q; “no binding (tested: 10-50 µM, 1:1 molar ratio)” with CRY1 PHR P39A; “binds” in experiment [1].

B2: GST-CLOCK PAS-B W362A (other, not shown: a dimerising Fc or GST; small tags and cut ends)
chain: QFIKEMCTVEEPNEEFTSRHSLEWKFLFLDHRAPPIIGYLPFEVLGTSGYDYYHVDDLENLAKCHEHLMQYGKGKSCYYRFLTKGQQWIWLQTHYYITYHQANSRPEFIVCTHTVVSYAEVRAERRRELGIEESL
As for B2, the binding result in experiment [2] is “no binding”.

B3: CLOCK PAS-B H360Y (other)
chain: QFIKEMCTVEEPNEEFTSRHSLEWKFLFLDHRAPPIIGYLPFEVLGTSGYDYYHVDDLENLAKCHEHLMQYGKGKSCYYRFLTKGQQWIWLQTHYYITYYQWNSRPEFIVCTHTVVSYAEVRAERRRELGIEESL
notes: also called CLOCK PAS-B H360Y mutant
As to B3, the binding result in experiment [3] is on record as “no binding (tested: 10-50 µM, 1:1 molar ratio)”.

B4: CLOCK PAS-B V315R (other)
chain: QFIKEMCTVEEPNEEFTSRHSLEWKFLFLDHRAPPIIGYLPFEVLGTSGYDYYHRDDLENLAKCHEHLMQYGKGKSCYYRFLTKGQQWIWLQTHYYITYHQWNSRPEFIVCTHTVVSYAEVRAERRRELGIEESL
notes: also called CLOCK PAS-B V315R mutant
For the molecule B4, in experiment [4], the binding result was “no binding (tested: incubated 1:1)”.

B5: CRY1 PHR (residues 1-491) after cleavage of the His6 tag, with residual vector sequence (Example 6) (other)
chain: GAMDPEFMGVNAVHWFRKGLRLHDNPALKECIQGADTIRCVYILDPWFAGSSNVGINRWRFLLQCLEDLDANLRKLNSRLFVIRGQPADVFPRLFKEWNITKLSIEYDSEPFGKERDAAIKKLATEAGVEVIVRISHTLYDLDKIIELNGGQPPLTYKRFQTLVSKMEPLEMPADTITSDVIGKCMTPLSDDHDEKYGVPSLEELGFDTDGLSSAVWPGGETEALTRLERHLERKAWVANFERPRMNANSLLASPTGLSPYLRFGCLSCRLFYFKLTDLYKKVKKNSSPPLSLYGQLLWREFFYTAATNNPRFDKMEGNPICVQIPWDKNPEALAKWAEGRTGFPWIDAIMTQLRQEGWIHHLARHAVACFLTRGDLWISWEEGMKVFEELLLDADWSINAGSWMWLSCSSFFQQFFHCYCPVGFGRRTDPNGDYIRRYLPVLRGFPAKYIYDPWNAPEGIQKVAKCLIGVNYPKPMVNHAEASRLNIERMKQIYQQL
As for B5, the binding result in experiment [5] was “binds”.
